Reference: US20240059799A1 (Pfizer, published 2024)
Numbering of substitutions follows the chain as printed.

B1: p40TL1A-0033 (bispecific antibody, human IgG1, kappa)
heavy: EVQLVQSGAEVKKPGESLKISCKGSGYSFTTYWLGWVRQMPGKGLDWIGIMSPVDSDIRYSPSFQGQVTMSVDKSITTAYLQWNSLKASDTAMYYCARRRPGQGYFDFWGQGTLVTVSSASTKGPSVFPLAPSSKSTSGGTAALGCLVKDYFPEPVTVSWNSGALTSGVHTFPAVLQSSGLYSLSSVVTVPSSSLGTQTYICNVNHKPSNTKVDKKVEPKSCDKTHTCPPCPAPEAAGAPSVFLFPPKPKDTLMISRTPEVTCVVVDVSHEDPEVKFNWYVDGVEVHNAKTKPREEQYNSTYRVVSVLTVLHQDWLNGKEYKCKVSNKALPAPIEKTISKAKGQPREPQVCTLPPSREEMTKNQVSLWCLVKGFYPSDIAVEWESNGQPENNYKTTPPVLDSDGSFFLYSKLTVDKSRWQQGNVFSCSVLHEALHSHYTQKSLSLSPGK
light: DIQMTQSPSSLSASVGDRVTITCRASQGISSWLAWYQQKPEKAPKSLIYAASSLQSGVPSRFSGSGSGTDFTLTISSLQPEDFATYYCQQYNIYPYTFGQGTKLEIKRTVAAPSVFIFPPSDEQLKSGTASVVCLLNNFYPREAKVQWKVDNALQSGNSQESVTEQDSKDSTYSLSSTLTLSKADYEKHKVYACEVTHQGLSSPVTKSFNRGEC
chain 1: not shown
chain 2: QVQLVQSGAEVKKPGASVKVSCKASGYDYTYYGISWVRQAPGQGLEWMGWISTYNTGTHYAPSLQGRVTMTTDTSTSTAYMELRSLRSDDTAVYYCARESYYGSGAFRGGMDVWGQGTTVTVSSASTKGPSVFPLAPSSKSTSGGTAALGCLVKDYFPEPVTVSWNSGALTSGVHTFPAVLQSSGLYSLSSVVTVPSSSLGTQTYICNVNHKPSNTKVDKKVEPKSC
notes: single cell, KiH, modified Fd, LS
B2: p40TL1A-0032 (bispecific antibody)
heavy 1: B1 heavy with L130K, V187S
light 1: DIQMTQSPSSLSASVGDRVTITCRASQGISSWLAWYQQKPEKAPKSLIYAASSLQSGVPSRFSGSGSGTDFTLTISSLQPEDFATYYCQQYNIYPYTFGQGTKLEIKRTVAAPSVFIFPPSDEQLKSGTASVSCLLNNFYPREAKVQWKVDNALQSGNSQESVTEQDSKDSTYSLDSTLTLSKADYEKHKVYACEVTHQGLSSPVTKSFNRGEC
heavy 2: QVQLVQSGAEVKKPGASVKVSCKASGYDYTYYGISWVRQAPGQGLEWMGWISTYNTGTHYAPSLQGRVTMTTDTSTSTAYMELRSLRSDDTAVYYCARESYYGSGAFRGGMDVWGQGTTVTVSSASTKGPSVFPEAPSSKSTSGGTAALGCLVKDYFPEPVTVSWNSGALTSGVHTFPAVLQSSGLYSLGSVVTVPSSSLGTQTYICNVNHKPSNTKVDKKVEPKSCDKTHTCPPCPAPEAAGAPSVFLFPPKPKDTLMISRTPEVTCVVVDVSHEDPEVKFNWYVDGVEVHNAKTKPREEQYNSTYRVVSVLTVLHQDWLNGKEYKCKVSNKALPAPIEKTISKAKGQPREPQVYTLPPCREEMTKNQVSLSCAVKGFYPSDIAVEWESNGQPENNYKTTPPVLDSDGSFFLVSKLTVDKSRWQQGNVFSCSVLHEALHSHYTQKSLSLSPGK
light 2: not shown
notes: single cell, KiH, S1-S1rev, LS
B3: p40TL1A-0001 bispecific antibody (bispecific antibody)
heavy 1: B1 heavy with D223R, P230R, C351Y, W368T, K411R
light 1: not shown
heavy 2: B2 heavy 2 with E135L, G190S, D228E, P235E, C361S, S373T, A375E, V414Y
light 2: not shown
B4: p40TL1A-0024 bispecific antibody (bispecific antibody, human IgG1, kappa)
heavy 1: B1 heavy with C351Y, W368T, K411R
light 1: not shown
heavy 2: B2 heavy 2 with E135L, G190S, C361S, S373T, A375E, V414Y
light 2: not shown
B5: p40TL1A-0021 bispecific antibody (bispecific antibody)
heavy 1: B1 heavy with D223R, C351Y, W368T, K411R
light 1: not shown
heavy 2: B2 heavy 2 with E135L, G190S, D228E, C361S, S373T, A375E, V414Y
light 2: not shown
B6: p40TL1A-0018 bispecific antibody (bispecific antibody, human IgG1, kappa)
heavy 1: B1 heavy with C351Y
light 1: not shown
heavy 2: B2 heavy 2 with E135L, G190S, C361S
light 2: not shown
B7: p40-0003 antibody (antibody, human IgG1, kappa, V domains shown)
VH: EVQLVQSGAEVKKPGESLKISCKGSGYSFTTYWLGWVRQMPGKGLDWIGIMSPVDSDIRYSPSFQGQVTMSVDKSITTAYLQWNSLKASDTAMYYCARRRPGQGYFDFWGQGTLVTVSS
VL: DIQMTQSPSSLSASVGDRVTITCRASQGISSWLAWYQQKPEKAPKSLIYAASSLQSGVPSRFSGSGSGTDFTLTISSLQPEDFATYYCQQYNIYPYTFGQGTKLEIKR
B8: TL1A-0372 monovalent bispecific antibody (bispecific antibody, human IgG1, kappa)
heavy 1: B2 heavy 2 with E135L, G190S, Y356C, C361S, S373W, A375L, V414Y
heavy 2: not shown
light: not shown

Biological target: T1, recombinant human TL1A (human, UniProt O95150 71-251)
T1 construct: Homotrimeric cytokine; biotinylated with Sulfo-NHS-biotin where captured for SPR, coated unlabelled in ELISA, soluble in bioassays; also called TNFSF15
T1 chain: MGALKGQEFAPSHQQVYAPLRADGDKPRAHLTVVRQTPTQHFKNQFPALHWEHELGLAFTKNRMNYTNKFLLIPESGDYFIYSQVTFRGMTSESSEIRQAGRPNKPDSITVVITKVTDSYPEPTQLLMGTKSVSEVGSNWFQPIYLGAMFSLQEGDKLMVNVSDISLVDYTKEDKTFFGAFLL
Experiment: SPR 37 C, biotinylated human TL1A captured, bispecific injected
Protocol: (§1) SPR was utilized to determine if the affinity constants of each arm of the bispecific variants binding human IL-23, containing the p40 subunit, and human TL1A were the same for each bispecific approach. For the analysis of the p40 binding arm, kinetic assays were conducted at 37° C. using a collection rate of 10 Hz on a Biacore™ 8 K+ instrument (GE Healthcare). An anti-human IgG antibody (anti-human Fc, GE Healthcare, 22-0648-88) was amine coupled to all four flow cells of a carboxymethylated dextran coated sensor chip (GE Healthcare,) using the manufacturer's recommended protocol. […] For the analysis of the TL1A binding arm, kinetic assays were conducted at 37° C. using a collection rate of 10 Hz on a Biacore™ T200 instrument (GE Healthcare).

Binder	Kd [nM]	koff [s⁻¹]	kon [M⁻¹ s⁻¹]
B1	0.253	5.52e-05	218000
B2	0.254	6.15e-05	243000

biological target: T2, human IL-23 (human, UniProt P29460 23-328; Q9NPF7 20-189); experiment: SPR, bispecific held on captured biotinylated human TL1A, then human IL-23 injected (simultaneous binding)
T2 construct: Heterodimer p40/p19; Whole entries as named; also called IL-23 Human; recombinant human IL-23
T2 sequence 1: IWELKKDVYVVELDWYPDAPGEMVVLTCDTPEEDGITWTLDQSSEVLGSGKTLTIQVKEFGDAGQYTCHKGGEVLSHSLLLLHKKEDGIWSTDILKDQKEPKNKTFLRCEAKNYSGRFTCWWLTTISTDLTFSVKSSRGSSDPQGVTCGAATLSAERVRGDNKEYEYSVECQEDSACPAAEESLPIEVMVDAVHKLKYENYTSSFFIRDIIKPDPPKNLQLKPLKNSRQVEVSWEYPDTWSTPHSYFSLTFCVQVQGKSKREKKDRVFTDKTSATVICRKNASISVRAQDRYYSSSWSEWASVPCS
T2 sequence 2: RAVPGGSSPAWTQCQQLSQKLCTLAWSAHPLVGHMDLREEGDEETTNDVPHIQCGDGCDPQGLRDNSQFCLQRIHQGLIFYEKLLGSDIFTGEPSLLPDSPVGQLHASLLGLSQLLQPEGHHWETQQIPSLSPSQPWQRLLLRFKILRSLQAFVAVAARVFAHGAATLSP
Protocol: SPR was used to determine if the bispecific variants could simultaneously bind TL1A and IL-23, containing the p40 domain. For this analysis, a semi-quantitative SPR method was developed using Biacore™ T200 (GE Healthcare) instrumentation. […] The bispecific was injected for 90 seconds at a concentration of 20 μg/m L, a flow rate of 50 μL/minute, and captured to a level of approximately 40-150 RU. Next, recombinant human IL-23 was injected for 60 seconds and a flow rate of 50 μL/minute at a concentration range of 0.37-15 nM.

Binder	Kd [nM]	koff [s⁻¹]	kon [M⁻¹ s⁻¹]
B1	0.0791	0.000519	6.56e+06
B2	0.0788	0.000546	6.93e+06

biological target: T3, human IL-12 (human, UniProt P29460 23-328; P29459 23-219); experiment: cell-based or functional assay
T3 sequence 1: T2 sequence 1
T3 sequence 2: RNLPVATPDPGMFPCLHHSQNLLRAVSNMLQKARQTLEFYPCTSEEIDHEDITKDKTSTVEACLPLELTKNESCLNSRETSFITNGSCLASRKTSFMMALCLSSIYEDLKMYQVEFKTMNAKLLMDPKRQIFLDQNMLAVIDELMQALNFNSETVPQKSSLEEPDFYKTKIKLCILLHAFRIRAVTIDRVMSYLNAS

Binder	KIT-225 STAT4 assay IL-12, Bioactivity relative to p40-0003 [fold]	KIT-225 STAT4 assay IL-12 IC50 [nM]
B3	1.7	5.7
B4	1.3	4.3
B5	0.9	3
B6	2	6.6
B7	1	3.3

biological target: T4, human IL-23 (human, UniProt P29460 23-328; Q9NPF7 20-189); experiment: cell-based or functional assay
T4 sequence 1: T2 sequence 1
T4 sequence 2: T2 sequence 2

Binder	KIT-225 STAT3 assay IL-23, Bioactivity relative to p40-0003 [fold]	KIT-225 STAT3 assay IL-23 IC50 [nM]
B3	2.4	3.9
B4	2.2	3.6
B5	1.4	3.4
B6	2.1	3.4
B7	1	1.6

Biological target: T5, recombinant human TL1A (human, UniProt O95150 71-251)
T5 chain: T1 chain
Experiment: cell-based or functional assay

Binder	NF-κB assay IC50 (TF-1 reporter cells) [pM]	NF-κB assay, Bioactivity relative to TL1A-0372 [fold]
B3	91.1	0.9
B4	106	1
B5	50.9	0.5
B6	105	1
B8	102	1

biological target: T2, human IL-23; experiment: SPR 37 C, bispecific captured by anti-human Fc, human IL-23 injected
Protocol: as §1

Binder	Kd [nM]	koff [s⁻¹]	kon [M⁻¹ s⁻¹]
B1	0.557	0.00115	2.07e+06
B2	0.567	0.00109	1.92e+06
